Measurements published in the domain aggregation screens of Martell et al. (2025).

Test: soluble fraction after stress (log2 fold change); higher = more stays soluble; pooled small domains, quantitative proteomics
Conditions: stress: 50 degC
Procedure, shortened: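 The stress applied to every library was 50°C. These custom libraries of small protein domains were pooled and measured at high throughput with quantitative proteomics as the read-out. Aggregation propensity is expressed as the base-two logarithm of the fold change in how much of each protein remains soluble. The higher the value, the more of that protein stays in solution.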

| Sequence | soluble fraction (log2) |
| --- | --- |
| HMVLTGTIKKYNNERGFGFISTSNFGDVFFHIKDFQKGEQPIPGREVYFEVVKKENKKRAIHVYYSD | -1.02 |
| HMKNESLMLPRDIDYSRVHGLSNEAIQKLQDALPQSLGQASRIEGITPATLSLLLLYLKKNNKRI | -0.00929 |
| HMLLGPDALTNRELDVLALLERRLSNKEIGALLYISPRTVKRHTINIYQKLHVNNRRAAVAQAKALGLMPD | -1.79 |
| HMDFEVGTVKWFNTKKGYGFITRDQGEDIFVHFRNIKGQGRRSLSDGERVSFVVTHGDKGLQADQVSP | -1.38 |
| HMDGLDFIINENGKIANINEEGELLAKGENIMLGYYKDSISTNNTINNGWLHTGDIAKIDNDGFIYL | 0.0618 |
| HMTSRLLTPRQRYVFDTAMKEGFYDVPRRITLTELASVLDVAKSTLSAQLHRIESTVHHAYADDIRRRS | -2.35 |
| HMTPEPVTMYITSLTEFRSEPNTEAGIIKLLDAYEEVEMIESRGEWSKISYGDQIGYILSEFLTAENRT | -0.0121 |
| HMSGTGSYVALLRDPQGNVGKVVVKGSKGEQVLSQPQQAARLDGATPSYEVTGRQIAEDFGRALAV | 0.127 |
| HMIRALVPGQTLHGEIVGRNGGEVQVRLAEDMILNARVDQNIYLELGKDLTFEVKNNGATLTLSPL | -0.272 |
| HMTKEEREKREKYEKLMKKAEELTAAKNHREVINVLGQAKAYATAAQLKEIEEKIKAATSEMNK | 0.136 |
| HMRFSYLNIETRKDISSLINKSEITHSSYNNNEYLYKIKSKKTDDFKDLISLIDEKDLISYSIDS | -0.838 |
| HMDEIELLLQDAIQKLPEKQRMVFTLRYYDNLPYEEISKILDMSVSTLKTNYHYAKSKIEQYILDHS | -0.607 |
| HMSINTLEVHSLKALENLAESPLLISFSYENEEYNYRLASSDVSLLKKISSNYSDDSDIKGLRFIS | -0.992 |
| HMAMDITLPLAEVRRQSLEQIERQYLNELMSKHLGRINRAAEAAGITTRQLHKLLTKYSIRKEDFK | -0.673 |
| HMKELFGQRLREQRLKQNLTLEQLAEKANLSPNYVGMVERGLKEPGLATIVKLLNGLNVSADTLL | -0.036 |
| HMTGQVASMVERLAQRLKDQPQDAEGWAMLARSYSVLGRHPEALQAYEKALALRKDDANLLADYADSLA | -0.087 |
| HMYMKLSVKDAALFLSVSPETVYRWVKQEEIPYHTVNDQLRFNRAELLEWATARSLEVSPDLFVP | -3.04 |
| HMPAQPEPYNNLARLYSAQGKLDQAASLLRAGLYTDPAYRALFDNLTRIYAEQAARSLSAALD | -0.907 |
| HMEDQVITQFNMRLIRAVMPQGAPMIVVYEDPKDYPGLFVARLFDGRKSTHLIALADTLEDI | -0.123 |
| HMRVLEYTADGSRLDVLLSQDGVLSRSRAAELIKGGAVTVDGRAEGKPSAKPAPGALVRVEVPE | -0.01 |
| HMVKSDLVGHRFILVEDVTPKLTPKYHYSGINWKLITTDNLVAGTRVEVIQVDVGKFHIKAIK | -1.65 |
| HMKQVEVPRLVGLTLREAQAVLGQVGLRIGLISRAALLASPREQIVEQIPVAGERNIATPYVNLLVNVP | -0.649 |
| HMEWTDHLAEELRSLAVEGEHLEIIANKLGISPGSARAKLVNLNIYNDYQLAHIERLEADTLQAK | -0.318 |
| HMALEGTLARVSVRIPESGVGEIIFSLGGVRRSEAARSVSGRAIPRGTEVVILSYERGIATVQPYEELLTN | 0.013 |
| HMYLPPYMEVRAVMILDGKPMALMYIEGEGDGLIVSPGYKFDNGKGKVVSITPTKVVVLWAGTKMELG | -2.14 |
| HMKQIEEIIARYTNENTPLMMILSDVQREYGYIPLDVQELISEKTGIPVAEIYGVVTFYSFFSL | -0.572 |
| HMSYLELENLAEDIKATYDNLSTDLREVFRLSDIEGLSYEEISNKMNIPIGTVRSRLHRARETLLRIFNN | -0.933 |
| HMREIRIIAEEGHGRLDAFLAGREELGLSRSRIKGLIEEGQVTLNGAVPKAKQPVSPGDEIVVSVPD | 0.141 |

| Sequence | soluble fraction (log2) |
| --- | --- |
| HMSLQEISDLISQAERADQEQLKEVLKQLHQVESGNQPMSKGFLSSALSTLNKYPALITSIGQLLFKLAT | 0.00954 |
| HMVETVQVVGAGQDIMPGSRINYSSLHYITVPRSYFHEDMFAKNNLVVGRIARAYVAKGEPLLAASLMPK | -2.54 |
| HMKKTETVRFTTNVTHGTKIKETDVEVVKISNSALPDKVVKNKTEVIGKYATADLFKGDFATENKVTD | 0.0533 |
| HMNFTKHPENPNFVVYRFTDPERANSFRAELIANNISFEEDTEKKKQLIYTLFAIHTKYYNQSMQINIK | -0.463 |
| HMQMTKSEFLDALRRALNGNMAAASVDDNIRFYDSYFYTEETKGRSEAEILSELGDPRILARTLIDAAD | 0.0125 |
| HMSTDKIDIVSSAILSSLKDNDGFIGLTDKSPPPEIYTAFRVSKKVFKQAIGALYKQRRITLESSGIRLIS | -0.193 |
| HMTGTVKVNSLNVYKSASLDSEVKDTLVLNTKVTIAENGQVTDGIYVWGRLQSGEGYVQMNNLTL | -0.687 |
| HMYMFSGQRLKSLRKEKKMSQEKLGSLLNISKVAVSNWENAKSFPTMDNLNELAKVLEVEPHYF | -1.16 |
| HMKIDANTFTSIEKQLFVLLSKTPTPMGSIFVALAKEDKEAVWEVIHFLEAENRLIMNEDGTIQL | -1.39 |
| HMNNWRRSLEREVTASLARGDRDIFDGLNRSFEAALITKALEHTGGRRIEAATLLGIGRNTLTRKIQDLGL | -1.83 |
| HMSDVLPEAILERRLVKKGNRAVPQVLIKWTKLPATSATWEDFYVLQQRFPTALAWGQAPSPGGQM | -0.221 |
| HMITEQEFQRVAAYVKNKAGINLNEKKVLVQGRLDSYMQRKGYSSYDEFMDRVERFPTGPEAEDLMNALTT | 0.0575 |
| HMKYFDRDLINYIQKTLAGKKIDFHEKIVPLIIELAGSDIRRVDEIIDMAEYSGKGMHVSEEMIRELAGDV | -0.815 |
| HMERDVNQLTPRERDILKLIAQGLPNKMIARRLDITESTVKVHVKHMLKKMKLKSRVEAAVWVHQERI | -1.38 |
| HMVNGTPADPYDVLGVESSASPEELRAAWQTLVRQNHPDQLMARGVPLEAVKLAEARLVAINQAWDDLTK | 0.0363 |
| HMEPTAEQLKAIRQFASVNGRSWKSELRYLWETGAYHRAALGGADPGYLQQVRNQFGPGWLRAFKISK | -0.852 |
| HMNLSDIETWLRELSLEKYALAFSEAEIDFETLPELTEDDLKEVGLPVGPRRKVWGAIQLLRTTD | -1.42 |
| HMGMSENIDKVAGGIPYKVEGNKAIINEPLDDATKERLMGKAKEHGYHAAPNQAGGITITLK | 0.134 |
| HMGGALSPDFGWLAMIDPDEGRAITLYDIASGEAIAVLDTHEARVAALAWSPDGTRLASGDQNGLIVQWEI | -0.432 |
| HMSRLLERARDLMAKPGAWLSAEGGAYALRLSPDRRSRISLTLTETEFRALIDQPGLRVRPGGGWSGRA | -3 |
| HMNKKEQYQNIISNFLEKMSEEDRLIFNMHFFKSINISQIARSIDREGYYVKTKIENLLADLKSLMIGNNL | -1.95 |
| HMAEKAVELTENEKAIQTILSNGALEIGELKTKLELSGKQWDVALKGLAKHGITQVSKVEGVVTVGL | 0.136 |
| HMEFEKYKYHYIFDDVLGLRIVWDRGKEHFSYFVNEELAEKSRKSDKDALEVMFYLEHKRWPEEGELENY | -0.687 |
| HMALKSYEDMVGKTGVAYTVLRPSGKVIINDELFDATARSGMIEKGNEVIIYDYKNAQLIVEK | 0.0774 |
| HMQPPVDGNEIMEIFGIKGSPVIGVIKSTIKNAILDGIIAPNDREAALELMFRIADENGLKPVVTQTQ | 0.101 |
| HMSHGFFTLQSDDLNLLRTVLEGHSSIGDIKIEGIQLVAYLKEPLNGAELNKILFEKGINLSYLVHRK | -2.15 |
| HMELPVNSIRVPDVVGLSLREAMQAMTDAGVPWQSVQAKGVGFVSRQSPEAGTVTQLRRVRLELKLF | -2.58 |
